# From publication doi:10.1101/2020.06.24.163345
# Biological target: SisCmr7-β (Cmr7 subunit of the S. islandicus Cmr-β complex), dimer (S. islandicus (REY15A))
# Experiment: cryo-EM structure
substance,measurement,value
"SisCmr7-β (Cmr7 subunit of the S. islandicus Cmr-β complex), dimer (natural protein)",stoichiometry N,2
